Test results as given in US20130315910A1 (Xencor, published 2013).
Where a chain is given by its changes, count along the chain named. Names and notes keep the numbering of the source. Each block holds one binder with its values, some of them ahead of it.

What was measured:
Test in all cases: SPR
[1] = biological target: T1, human FcγRIIb receptor protein (R&D Systems) (human, UniProt P31994 46-217)
T1 construct: Bought protein injected over captured antibody in Biacore; also called CD32b
T1 sequence (looked up): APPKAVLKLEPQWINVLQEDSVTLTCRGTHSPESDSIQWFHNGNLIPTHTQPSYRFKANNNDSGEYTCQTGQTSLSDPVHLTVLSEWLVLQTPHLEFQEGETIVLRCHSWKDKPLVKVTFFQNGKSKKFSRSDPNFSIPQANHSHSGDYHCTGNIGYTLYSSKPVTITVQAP

[2] = biological target: T2, cynoFcγRIIb (Macaca fascicularis, UniProt A0A140HDP4)
T2 construct: extracellular region, C-terminal His- and GST-tag; also called cynomolgus monkey FcγRIIb
T2 sequence (receptor extracellular region): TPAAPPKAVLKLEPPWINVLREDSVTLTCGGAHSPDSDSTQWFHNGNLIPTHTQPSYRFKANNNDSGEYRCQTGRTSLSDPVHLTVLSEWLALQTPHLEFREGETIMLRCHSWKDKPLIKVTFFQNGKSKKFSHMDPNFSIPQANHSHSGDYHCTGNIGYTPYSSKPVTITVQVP
Description: (§1) Variants were screened for receptor affinity using Biacore™ technology, also referred to as Biacore herein, a surface plasmon resonance (SPR) based technology for studying biomolecular interactions in real time. SPR measurements were performed using a Biacore 3000 instrument (Biacore, Piscataway, N.J.). A protein A/G (Pierce Biotechnology) CM5 biosensor chip (Biacore) was generated using a standard primary amine coupling protocol. All measurements were performed using HBS-EP buffer (10 mM HEPES pH 7.4, 0.15 M NaCl, 3 mM EDTA, 0.005% vol/vol surfactant P20, Biacore). Antibodies at 20 nM or 50 nM in HBS-EP buffer were immobilized on the protein A/G surface and FcγRs were injected. After each cycle, the surface was regenerated by injecting glycine buffer (10 mM, pH 1.5). Data were processed by zeroing time and response before the injection of FcγR and by subtracting appropriate nonspecific signals (response of reference channel and injection of running buffer). Kinetic analyses were performed by global fitting of binding data with a 1:1 Langmuir binding model using BIAevaluation software (Biacore).
(§2) Variant antibodies were tested for their affinity to mouse or cynologous monkey FcγRs using Biacore SPR as described above. Specifically, antibodies were first immobilized on a protein A/G chip to high density, and then followed by injections of the extracellular domain of the mouse or cynologous monkey FcγR of interest. Both association and dissociation phases were tracked in real time using the Biacore technology.

[3] = biological target: T3, mFcγRIIb (Mus musculus, UniProt P08101)
T3 construct: extracellular region, C-terminal His- and GST-tag; also called mouse FcγRII
T3 sequence (receptor extracellular region, looked up): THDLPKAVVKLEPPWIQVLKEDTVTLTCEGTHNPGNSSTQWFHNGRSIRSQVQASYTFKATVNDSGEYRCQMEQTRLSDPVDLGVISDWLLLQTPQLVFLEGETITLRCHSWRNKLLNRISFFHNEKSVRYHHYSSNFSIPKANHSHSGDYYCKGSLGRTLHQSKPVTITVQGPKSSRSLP
Description: as §1, §2

Fold vs WT IgG1 [1]: 2.65 fold
Kd [1]: 553 nM
Fold vs WT IgG1 (Kd) [2]: 4.78 fold
Fold vs WT IgG1 (Kd) [3]: 1.87 fold
B1: K326D/L328Y/I332E (antibody, human IgG1, kappa)
heavy: EVQLVESGGGLVKPGGSLKLSCAASGYTFTSYVMHWVRQAPGKGLEWIGYINPYNDGTKYNEKFQGRVTISSDKSISTAYMELSSLRSEDTAMYYCARGTYYYGTRVFDYWGQGTLVTVSSASTKGPSVFPLAPSSKSTSGGTAALGCLVKDYFPEPVTVSWNSGALTSGVHTFPAVLQSSGLYSLSSVVTVPSSSLGTQTYICNVNHKPSNTKVDKKVEPKSCDKTHTCPPCPAPELLGGPSVFLFPPKPKDTLMISRTPEVTCVVVDVSHEDPEVKFNWYVDGVEVHNAKTKPREEQYNSTYRVVSVLTVLHQDWLNGKEYKCKVSNDAYPAPEEKTISKAKGQPREPQVYTLPPSREEMTKNQVSLTCLVKGFYPSDIAVEWESNGQPENNYKTTPPVLDSDGSFFLYSKLTVDKSRWQQGNVFSCSVMHEALHNHYTQKSLSLSPGK
light: DIVMTQSPATLSLSPGERATLSCRSSKSLQNVNGNTYLYWFQQKPGQSPQLLIYRMSNLNSGVPDRFSGSGSGTEFTLTISSLEPEDFAVYYCMQHLEYPITFGAGTKLEIKRTVAAPSVFIFPPSDEQLKSGTASVVCLLNNFYPREAKVQWKVDNALQSGNSQESVTEQDSKDSTYSLSSTLTLSKADYEKHKVYACEVTHQGLSSPVTKSFNRGEC
notes: HuAM4G7 anti-CD19 IgG1 (m1) with these Fc substitutions, EU index; copies: 2 + 2

Fold vs WT IgG1 [1]: 2.08 fold
Kd [1]: 705 nM
Fold vs WT IgG1 (Kd) [2]: 4.6 fold
Fold vs WT IgG1 (Kd) [3]: 0.434 fold
B2: L328Y/I332E (antibody, human IgG1, kappa)
heavy: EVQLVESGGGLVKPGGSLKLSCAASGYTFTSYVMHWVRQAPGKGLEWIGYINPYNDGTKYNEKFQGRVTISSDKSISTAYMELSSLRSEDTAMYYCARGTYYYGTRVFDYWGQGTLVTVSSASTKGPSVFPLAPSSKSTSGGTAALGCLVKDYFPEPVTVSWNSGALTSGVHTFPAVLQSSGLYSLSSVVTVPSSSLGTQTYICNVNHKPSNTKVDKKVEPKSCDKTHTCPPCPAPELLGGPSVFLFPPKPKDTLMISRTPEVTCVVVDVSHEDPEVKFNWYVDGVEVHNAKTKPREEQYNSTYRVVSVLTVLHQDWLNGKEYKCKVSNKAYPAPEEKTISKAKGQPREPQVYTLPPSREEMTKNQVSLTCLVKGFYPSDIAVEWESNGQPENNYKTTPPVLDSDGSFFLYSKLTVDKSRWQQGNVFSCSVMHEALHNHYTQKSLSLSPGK
light: B1 light
notes: as for B1

Fold vs WT IgG1 [1]: 3.97 fold
Kd [1]: 370 nM
Fold vs WT IgG1 (Kd) [2]: 3.17 fold
Fold vs WT IgG1 (Kd) [3]: 6.82 fold
B3: L235F/H268D/L328Y (antibody, human IgG1, kappa)
heavy: B1 heavy with L239F, H272D, D330K, E336I
light: B1 light
notes: as for B1

Fold vs WT IgG1 [1]: 51.1 fold
Kd [1]: 28.7 nM
Fold vs WT IgG1 (Kd) [2]: 23.7 fold
Fold vs WT IgG1 (Kd) [3]: 47.8 fold
B4: S239D/H268D/L328W (antibody, human IgG1, kappa)
heavy: B1 heavy with S243D, H272D, D330K, Y332W, E336I
light: B1 light
notes: as for B1

Fold vs WT IgG1 [1]: 8.34 fold
Kd [1]: 176 nM
Fold vs WT IgG1 (Kd) [2]: 3.09 fold
Fold vs WT IgG1 (Kd) [3]: 2.09 fold
B5: S239D/L328F/I332E (antibody, human IgG1, kappa)
heavy: B1 heavy with S243D, D330K, Y332F
light: B1 light
notes: as for B1

Fold vs WT IgG1 [1]: 0.0372 fold
Kd [1]: 39400 nM
Fold vs WT IgG1 (Kd) [2]: 0.25 fold
Fold vs WT IgG1 (Kd) [3]: 0.085 fold
B6: P331S (antibody, human IgG1, kappa)
heavy: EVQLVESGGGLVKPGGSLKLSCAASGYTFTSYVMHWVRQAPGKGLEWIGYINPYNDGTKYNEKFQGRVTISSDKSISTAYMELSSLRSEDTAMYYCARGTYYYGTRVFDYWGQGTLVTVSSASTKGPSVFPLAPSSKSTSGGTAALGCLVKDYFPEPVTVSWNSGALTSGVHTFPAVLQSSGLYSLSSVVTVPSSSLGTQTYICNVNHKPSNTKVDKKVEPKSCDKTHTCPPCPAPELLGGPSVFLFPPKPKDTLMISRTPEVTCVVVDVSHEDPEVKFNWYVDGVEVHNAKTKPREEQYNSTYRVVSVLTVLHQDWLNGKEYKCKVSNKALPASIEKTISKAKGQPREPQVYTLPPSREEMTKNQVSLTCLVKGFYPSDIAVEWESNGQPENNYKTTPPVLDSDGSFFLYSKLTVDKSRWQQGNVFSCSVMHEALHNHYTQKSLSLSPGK
light: B1 light
notes: HuAM4G7 anti-CD19 IgG1 (m1) with this Fc substitution, EU index; copies: 2 + 2

Fold vs WT IgG1 [1]: 21.7 fold
Kd [1]: 67.7 nM
Fold vs WT IgG1 (Kd) [2]: 5.87 fold
Fold vs WT IgG1 (Kd) [3]: 26.5 fold
B7: S239D/H268E/L328Y (antibody, human IgG1, kappa)
heavy: B1 heavy with S243D, H272E, D330K, E336I
light: B1 light
notes: as for B1

Fold vs WT IgG1 [1]: 3.04 fold
Kd [1]: 483 nM
Fold vs WT IgG1 (Kd) [2]: 0.078 fold
Fold vs WT IgG1 (Kd) [3]: 0.429 fold
B8: K326W (antibody, human IgG1, kappa)
heavy: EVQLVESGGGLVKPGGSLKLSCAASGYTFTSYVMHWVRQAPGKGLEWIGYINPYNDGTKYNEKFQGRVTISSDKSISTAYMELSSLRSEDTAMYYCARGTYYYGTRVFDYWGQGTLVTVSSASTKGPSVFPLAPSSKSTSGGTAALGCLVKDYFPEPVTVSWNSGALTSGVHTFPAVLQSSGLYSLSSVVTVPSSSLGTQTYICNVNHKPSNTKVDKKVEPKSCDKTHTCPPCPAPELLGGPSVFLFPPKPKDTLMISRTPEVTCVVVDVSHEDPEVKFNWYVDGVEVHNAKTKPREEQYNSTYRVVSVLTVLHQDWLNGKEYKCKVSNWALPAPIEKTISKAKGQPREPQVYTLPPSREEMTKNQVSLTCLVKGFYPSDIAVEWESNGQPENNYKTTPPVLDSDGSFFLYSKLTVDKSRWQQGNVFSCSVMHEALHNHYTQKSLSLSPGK
light: B1 light
notes: as for B6

Fold vs WT IgG1 [1]: 32.8 fold
Kd [1]: 44.8 nM
Fold vs WT IgG1 (Kd) [2]: 5.92 fold
Fold vs WT IgG1 (Kd) [3]: 44.1 fold
B9: L234W/S239D/L328Y (antibody, human IgG1, kappa)
heavy: B1 heavy with L238W, S243D, D330K, E336I
light: B1 light
notes: as for B1

Fold vs WT IgG1 [1]: 8.79 fold
Kd [1]: 167 nM
Fold vs WT IgG1 (Kd) [2]: 3.17 fold
Fold vs WT IgG1 (Kd) [3]: 6.01 fold
B10: S239D/H268D/L328F (antibody, human IgG1, kappa)
heavy: B1 heavy with S243D, H272D, D330K, Y332F, E336I
light: B1 light
notes: as for B1

Fold vs WT IgG1 [1]: 3.31 fold
Kd [1]: 443 nM
Fold vs WT IgG1 (Kd) [2]: 4.11 fold
Fold vs WT IgG1 (Kd) [3]: 0.843 fold
B11: L235F/L328Y/I332E (antibody, human IgG1, kappa)
heavy: B1 heavy with L239F, D330K
light: B1 light
notes: as for B1

Fold vs WT IgG1 [1]: 6.32 fold
Kd [1]: 232 nM
Fold vs WT IgG1 (Kd) [2]: 2.04 fold
Fold vs WT IgG1 (Kd) [3]: 0.617 fold
B12: L234W/L328Y/I332E (antibody, human IgG1, kappa)
heavy: B1 heavy with L238W, D330K
light: B1 light
notes: as for B1

Fold vs WT IgG1 [1]: 54.1 fold
Kd [1]: 27.1 nM
Fold vs WT IgG1 (Kd) [2]: 9.1 fold
Fold vs WT IgG1 (Kd) [3]: 3.04 fold
B13: S239D/H268D/L328Y/I332E (antibody, human IgG1, kappa)
heavy: B1 heavy with S243D, H272D, D330K
light: B1 light
notes: as for B1

Fold vs WT IgG1 [1]: 6.82 fold
Kd [1]: 215 nM
Fold vs WT IgG1 (Kd) [2]: 5.2 fold
Fold vs WT IgG1 (Kd) [3]: 31.2 fold
B14: L235F/S239D/L328Y (antibody, human IgG1, kappa)
heavy: B1 heavy with L239F, S243D, D330K, E336I
light: B1 light
notes: as for B1

Fold vs WT IgG1 [1]: 24.4 fold
Kd [1]: 60.1 nM
Fold vs WT IgG1 (Kd) [2]: 22.2 fold
Fold vs WT IgG1 (Kd) [3]: 48.6 fold
B15: S239D/H268D/L328Y (antibody, human IgG1, kappa)
heavy: B1 heavy with S243D, H272D, D330K, E336I
light: B1 light
notes: as for B1

Fold vs WT IgG1 [1]: 53.2 fold
Kd [1]: 27.6 nM
Fold vs WT IgG1 (Kd) [2]: 27.6 fold
Fold vs WT IgG1 (Kd) [3]: 2.59 fold
B16: S239D/H268D/L328F/I332E (antibody, human IgG1, kappa)
heavy: B1 heavy with S243D, H272D, D330K, Y332F
light: B1 light
notes: as for B1

Fold vs WT IgG1 [1]: 27.8 fold
Kd [1]: 52.7 nM
Fold vs WT IgG1 (Kd) [2]: 4.55 fold
Fold vs WT IgG1 (Kd) [3]: 4.81 fold
B17: S239D/H268D/L328W/I332E (antibody, human IgG1, kappa)
heavy: B1 heavy with S243D, H272D, D330K, Y332W
light: B1 light
notes: as for B1

Fold vs WT IgG1 [1]: 13 fold
Kd [1]: 113 nM
Fold vs WT IgG1 (Kd) [2]: 10.2 fold
Fold vs WT IgG1 (Kd) [3]: 131 fold
B18: S239D/K326D/L328Y (antibody, human IgG1, kappa)
heavy: B1 heavy with S243D, E336I
light: B1 light
notes: as for B1

Fold vs WT IgG1 [1]: 5.56 fold
Kd [1]: 264 nM
Fold vs WT IgG1 (Kd) [2]: 2.13 fold
Fold vs WT IgG1 (Kd) [3]: 11.5 fold
B19: S239D/L328Y (antibody, human IgG1, kappa)
heavy: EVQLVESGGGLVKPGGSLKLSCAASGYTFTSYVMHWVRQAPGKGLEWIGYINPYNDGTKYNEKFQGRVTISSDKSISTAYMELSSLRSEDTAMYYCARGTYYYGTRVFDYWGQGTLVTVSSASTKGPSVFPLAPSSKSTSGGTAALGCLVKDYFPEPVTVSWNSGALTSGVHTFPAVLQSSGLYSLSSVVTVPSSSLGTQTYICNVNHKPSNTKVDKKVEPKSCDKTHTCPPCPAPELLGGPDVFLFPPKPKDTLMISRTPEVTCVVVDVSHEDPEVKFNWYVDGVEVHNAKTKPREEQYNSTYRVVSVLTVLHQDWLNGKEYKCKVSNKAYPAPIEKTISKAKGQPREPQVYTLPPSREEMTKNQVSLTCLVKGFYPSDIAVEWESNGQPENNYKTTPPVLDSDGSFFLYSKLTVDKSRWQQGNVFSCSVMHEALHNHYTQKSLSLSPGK
light: B1 light
notes: as for B1

Fold vs WT IgG1 [1]: 6.09 fold
Kd [1]: 241 nM
Fold vs WT IgG1 (Kd) [2]: 1.03 fold
Fold vs WT IgG1 (Kd) [3]: 0.605 fold
B20: K326E (antibody, human IgG1, kappa)
heavy: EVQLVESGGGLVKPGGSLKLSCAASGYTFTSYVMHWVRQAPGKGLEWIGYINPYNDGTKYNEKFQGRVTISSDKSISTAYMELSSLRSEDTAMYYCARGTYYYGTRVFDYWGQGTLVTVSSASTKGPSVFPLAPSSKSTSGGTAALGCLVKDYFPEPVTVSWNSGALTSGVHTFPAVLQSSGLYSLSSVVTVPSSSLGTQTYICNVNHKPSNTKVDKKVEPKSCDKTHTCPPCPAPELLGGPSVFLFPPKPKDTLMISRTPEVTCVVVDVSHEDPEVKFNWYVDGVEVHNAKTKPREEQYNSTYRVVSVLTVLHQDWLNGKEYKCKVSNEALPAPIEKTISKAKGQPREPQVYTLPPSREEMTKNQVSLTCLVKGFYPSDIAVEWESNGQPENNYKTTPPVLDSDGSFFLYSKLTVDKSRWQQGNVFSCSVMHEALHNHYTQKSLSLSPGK
light: B1 light
notes: as for B6
